Data taken from the Human Domainome abundance scans (Beltran et al. 2025).

B1: Apoptosis-associated speck-like protein containing a CARD, residues 114 to 194; numbered along this chain, Q9ULZ3 (parent)
chain: FIDQHRAALIARVTNVEWLLDALYGKVLTDEQYQAVRAEPTNPSKMRKLFSFTPAWNWTCKDLLLQALRESQSYLVEDLER

Variants of: B1
Test: abundance fitness (aPCA) (normalised: wild type 0, dead -1); higher = more abundant; growth selection in yeast, the domain comes from the species named
Conditions: Homo sapiens

Abundance fitness, by site and new letter:
C60: T 0.009, L -0.456, D 0.332, S 0.167, W -0.238, Q 0.329, G 0.084, P -0.625, F -0.162, I -0.473, R -0.265, E 0.285, V -0.461, M 0.122, K 0.041, H 0.185
L64: W -0.961, D -0.519, G -0.695, K -0.918, T -0.513, F 0.2, P -1.02, Y -0.75, M 0.163, I -0.192, Q -0.354, C -0.481, E -0.944, A -0.343, V -0.123, S -0.853
L68: M -0.449, N -0.54, D -1.01, Q -0.876, S -0.838, P -0.569, F -0.477, E -0.886, H -0.334, G -0.764, C -0.688, V -0.527, Y -0.777, I 0.001, A -0.733, W -1.18
D62: N -0.207, A -0.083, K -0.088, T -0.423, C -0.265, E 0.047, W -0.609, L -0.43, G -0.194, M -0.295, R -0.2, Y -0.644, Q -0.037, S -0.168, V -0.646, F -0.195, P -0.768, I -0.581
Q72: T -0.659, I -0.977, M -0.545, P -0.987, C -0.272, R -0.691, L -0.633, V -0.574, A -0.191, W -0.615, H 0.009, S -0.216, G -0.627, N 0.141, E 0.116, K -0.626, Y -0.332
T59: S -0.04, P -0.44, I -0.243, A 0.109, H 0.07, W 0.041, M -0.084, L -0.149, Y -0.102, C -0.135, E 0.269, F -0.023, K 0, V -0.128, G -0.019, R 0.111, N 0.018, D -0.007
K61: G -0.601, M -0.388, I -0.968, E -0.337, D -0.534, W -0.003, V -0.649, Y 0.119, R -0.437, H 0.028, N -0.52, Q -0.618, F 0.22, L -0.901, C -0.379, P -0.806, A -0.332
Q66: V -0.481, P -0.48, E -0.148, R -0.026, M -0.252, C -0.487, H -0.695, N -0.529, K -0.059, W -0.801, L -0.6, T -0.323, I -0.178, S -0.322, D -0.174, A -0.371
T53: R -0.466, Y 0.11, V 0.072
W58: T 0.319, V 0.174, M 0.167, Q 0.174, F 0.105, I -0.217, R 0.234, S 0.306, N 0.105, Y 0.203, H 0.289, E 0.376, A 0.357, K 0.19, P 0.145, C 0.047, D 0.453, G 0.205
W56: S -0.813, R -0.574, L -0.568, N -0.83, M -0.108, Q -0.598, C -0.957, K -0.684, E -1.13, H -0.371, Y -1.01, V -0.694, G -0.838, I -0.434, D -0.626, A -0.899, F -0.506, T -0.74
P54: I -0.189, W -0.084, E 0.078, F 0.057, R -0.026, D 0.132, M -0.292, K 0.047, H -0.196, A 0.045, V -0.197, T 0, S 0.044, L -0.328, C -0.254, Y -0.166, Q -0.064, G -0.017
S73: M -0.266, I -0.628, D -0.338, E -0.218, F -0.551, K -0.289, A -0.063, G 0.067, L -0.112, H -0.144, C -0.257
E70: S -0.265, K -0.116, P -0.542, C -0.202, Y -0.588, R -0.343, T -0.181, D -0.152, L -0.467, N -0.322, A -0.209, V -0.211, F -0.401, I -0.468, M -0.46
A67: Q -0.711, R -0.622, S -0.544, V -0.484, D -1.02, L 0.033, I -0.372, C -0.629, H -0.766, T -0.452, P -0.658, Y -0.239, W -0.491, K -0.446, N -0.278
S71: N 0.161, C -0.453, K -0.538, G -0.479, R -0.529, D -0.501, A -0.469, F -0.8, E -0.958, W -0.874, H -0.109, T -0.098, I -0.813, V -0.429, M -0.526, L -0.816, Q -0.251, P -0.774
N57: H -0.279, E -0.32, L -0.178, M -0.399, T -0.106, D 0.092, I -0.311, S 0.018, V -0.431, Y -0.852, C -0.269, R -0.731, W -0.468, P -0.233, K -0.492
R69: M -0.505, A -0.54, I -0.195, H -0.517, V -0.378, D -0.859, N -0.581, L -0.502, T -0.538, C -0.367, W -0.679, P -0.753, Q -0.716, E -0.29, G -0.736, Y -0.62, K 0.031, F -0.636
L65: D -0.563, I -0.338, P -0.939, S -0.512, M -0.194, E -0.142, H -0.143, F -0.024, C -0.248, Y -0.098, T -0.343, G -0.611, W -0.172, A -0.074, Q -0.812, N -0.548, R -0.361
L63: N -0.556, W -0.543, C -0.44, G -0.862, S -0.61, P -0.438, I -0.359, V -0.232, A -0.185, H -0.425, M 0.056, Q -0.243, D -0.777, E -0.31, R -0.385, F -0.381, T -0.325, K -0.298, Y -0.028
A55: P -0.325, E 0.087, H -0.005, Y -0.077, D -0.061, N 0.181, G 0.082, S 0.107, F -0.36, I -0.286, K 0.016, T -0.061, V -0.416, M -0.162, Q -0.062
